Measured values taken from patent US20190177366A1 (published 2019).
Bridge positions count the residues as written; N and C are the ends. Square brackets hold non-standard residues; d marks the D form. Ends that are not written are not given here. hArg = N=C(N)NCCCC[C@H](N)C(=O)O

Tests used:
[1] = biological target: T1, His-tagged PCSK9Δhelix (human, UniProt Q8NBP7 31-152; Q8NBP7 168-692); experiment: TR-FRET competition; competitor Ab20 on His-PCSK9Δhelix
T1 construct: Human PCSK9 M1-Q692 with engineered TEV site, cleaved by TEV protease; Target protein of the PCSK9Δhelix/Ab20 TR-FRET assay (1.25 nM); also called His-PCSK9Δhelix

[2] = biological target: T2, His-tagged, full-length PCSK9 (human, UniProt A8T644 31-152; Q8NBP7 153-692); experiment: TR-FRET competition; competitor EGF(A)-Fc on His-PCSK9
T2 construct: Target protein of the PCSK9/EGF(A) TR-FRET assay (10 nM); also called His-PCSK9; proprotein convertase subtilisin/kexin type 9

[3] = biological target: T3, proprotein convertase subtilisin/kexin type 9 (PCSK9) (human, UniProt Q8NBP7 31-152); experiment: phage competition ELISA
T3 construct: domain: prodomain; Recombinant; tag not written as a part; also called rec.PCSK9; His-PCSK9

[4] = biological target: T3, proprotein convertase subtilisin/kexin …; experiment: phage ELISA
[5] = biological target: T4, PCSK9Δhelix (human, UniProt Q8NBP7 31-152); experiment: SPR
T4 construct: domain: prodomain; Construct M1-Q692 with engineered TEV site, cut with TEV; His-tagged (tag not written as a part); also called His-PCSK9Δhelix; open groove PCSK9Δhelix

[6] = biological target: T5, His-tagged, full-length PCSK9 (human, UniProt Q8NBP7 31-152; Q8NBP7 153-692); experiment: TR-FRET competition, His-PCSK9; competitor EGF(A)-Fc
T5 construct: Target protein of the PCSK9/EGF(A) TR-FRET assay (10 nM); also called His-PCSK9

[7] = biological target: T6, PCSK9Δhelix (human PCSK9 lacking the P' helix, His-tagged) (human, UniProt Q8NBP7 31-152; Q8NBP7 168-692); experiment: TR-FRET competition vs Ab20 on His-PCSK9Δhelix
T6 construct: Construct M1-Q692 with engineered TEV site (Y166, R167 deleted, ENLYFQS inserted between R165 and A168), cleaved by TEV protease; new N-terminus of the catalytic domain is S-A168; also called His-PCSK9Δhelix

[8] = biological target: T7, human PCSK9 (proprotein convertase subtilisin/kexin type 9), His-tagged, full-length (human, UniProt A8T644 31-152; Q8NBP7 153-692, limits assumed); experiment: TR-FRET competition vs EGF(A)-Fc on His-PCSK9
T7 construct: The secreted protein is the prodomain plus the catalytic/Cys-rich part (N-terminus S153) after autocleavage; also called His-PCSK9; NARC-1
T7 sequence (A8T644 31-152 limits assumed, chain 1 of 2): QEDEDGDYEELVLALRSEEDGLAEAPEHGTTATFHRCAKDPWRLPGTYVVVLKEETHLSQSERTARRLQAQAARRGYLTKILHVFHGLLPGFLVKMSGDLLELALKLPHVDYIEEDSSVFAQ
T7 sequence (A8T644 other isoform, or with tags, fused parts or gaps limits assumed, chain 2 of 2): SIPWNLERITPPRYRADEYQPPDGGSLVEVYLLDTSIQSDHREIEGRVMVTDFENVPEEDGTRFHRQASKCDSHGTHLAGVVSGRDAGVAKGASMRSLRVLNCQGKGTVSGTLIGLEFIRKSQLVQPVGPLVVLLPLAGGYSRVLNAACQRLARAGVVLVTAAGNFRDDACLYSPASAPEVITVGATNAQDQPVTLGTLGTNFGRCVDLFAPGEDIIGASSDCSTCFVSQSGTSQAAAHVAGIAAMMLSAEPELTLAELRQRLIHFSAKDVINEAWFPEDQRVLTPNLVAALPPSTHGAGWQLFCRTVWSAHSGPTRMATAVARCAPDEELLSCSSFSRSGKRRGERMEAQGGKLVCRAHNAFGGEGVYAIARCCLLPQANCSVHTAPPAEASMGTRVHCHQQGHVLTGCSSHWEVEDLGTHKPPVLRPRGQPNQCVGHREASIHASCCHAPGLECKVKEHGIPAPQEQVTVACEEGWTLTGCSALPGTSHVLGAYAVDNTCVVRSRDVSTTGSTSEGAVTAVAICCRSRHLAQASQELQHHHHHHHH

T3 sequence (Q8NBP7 31-152 limits assumed, chain 1 of 2): as the sequence (A8T644 31-152 limits assumed, chain 1 of 2) above
T3 sequence (Q8NBP7 153-692 limits assumed, chain 2 of 2): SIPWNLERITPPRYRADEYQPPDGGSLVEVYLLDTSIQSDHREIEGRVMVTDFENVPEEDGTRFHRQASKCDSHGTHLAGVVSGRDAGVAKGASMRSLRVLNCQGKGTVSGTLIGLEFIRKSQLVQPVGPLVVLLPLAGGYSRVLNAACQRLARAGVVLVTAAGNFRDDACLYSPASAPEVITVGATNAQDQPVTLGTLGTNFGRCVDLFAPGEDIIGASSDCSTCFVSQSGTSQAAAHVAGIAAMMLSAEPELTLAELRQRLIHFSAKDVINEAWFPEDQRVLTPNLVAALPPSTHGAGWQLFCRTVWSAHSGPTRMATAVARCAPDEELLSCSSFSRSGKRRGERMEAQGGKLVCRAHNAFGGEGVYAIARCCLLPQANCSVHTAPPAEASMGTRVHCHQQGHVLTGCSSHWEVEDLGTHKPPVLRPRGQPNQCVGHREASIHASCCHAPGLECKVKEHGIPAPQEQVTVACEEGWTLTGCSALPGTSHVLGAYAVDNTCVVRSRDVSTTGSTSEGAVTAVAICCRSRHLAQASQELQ
T4 sequence (Q8NBP7 31-152 limits assumed, stated change not applied, form in doubt, chain 1 of 2): as the sequence (A8T644 31-152 limits assumed, chain 1 of 2) above
T4 sequence (Q8NBP7 other isoform, or with tags, fused parts or gaps mutant limits assumed, form in doubt, chain 2 of 2): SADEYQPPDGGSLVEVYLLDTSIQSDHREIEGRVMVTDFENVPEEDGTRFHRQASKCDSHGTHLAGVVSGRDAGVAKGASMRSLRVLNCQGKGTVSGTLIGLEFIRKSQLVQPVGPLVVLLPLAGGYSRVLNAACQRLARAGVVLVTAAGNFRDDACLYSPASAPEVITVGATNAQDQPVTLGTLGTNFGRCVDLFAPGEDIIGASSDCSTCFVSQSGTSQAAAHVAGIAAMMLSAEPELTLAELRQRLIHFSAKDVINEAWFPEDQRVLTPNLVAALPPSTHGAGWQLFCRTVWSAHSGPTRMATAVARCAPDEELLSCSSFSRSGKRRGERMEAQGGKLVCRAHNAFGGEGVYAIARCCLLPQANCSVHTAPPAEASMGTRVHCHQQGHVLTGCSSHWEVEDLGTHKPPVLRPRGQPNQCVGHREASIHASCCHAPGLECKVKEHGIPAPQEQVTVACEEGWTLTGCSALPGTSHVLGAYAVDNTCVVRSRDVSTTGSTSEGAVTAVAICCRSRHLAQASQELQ
T2 sequence (A8T644 31-152 limits assumed, chain 1 of 2): as the sequence (A8T644 31-152 limits assumed, chain 1 of 2) above
T2 sequence (A8T644 other isoform, or with tags, fused parts or gaps limits assumed, chain 2 of 2): as the sequence (A8T644 other isoform, or with tags, fused parts or gaps limits assumed, chain 2 of 2) above
T5 sequence (Q8NBP7 31-152, chain 1 of 2): as the sequence (A8T644 31-152 limits assumed, chain 1 of 2) above
T5 sequence (Q8NBP7 other isoform, or with tags, fused parts or gaps, chain 2 of 2): as the sequence (A8T644 other isoform, or with tags, fused parts or gaps limits assumed, chain 2 of 2) above
T6 sequence (Q8NBP7 31-152, stated change not applied, chain 1 of 2): as the sequence (A8T644 31-152 limits assumed, chain 1 of 2) above
T6 sequence (Q8NBP7 other isoform, or with tags, fused parts or gaps mutant, chain 2 of 2): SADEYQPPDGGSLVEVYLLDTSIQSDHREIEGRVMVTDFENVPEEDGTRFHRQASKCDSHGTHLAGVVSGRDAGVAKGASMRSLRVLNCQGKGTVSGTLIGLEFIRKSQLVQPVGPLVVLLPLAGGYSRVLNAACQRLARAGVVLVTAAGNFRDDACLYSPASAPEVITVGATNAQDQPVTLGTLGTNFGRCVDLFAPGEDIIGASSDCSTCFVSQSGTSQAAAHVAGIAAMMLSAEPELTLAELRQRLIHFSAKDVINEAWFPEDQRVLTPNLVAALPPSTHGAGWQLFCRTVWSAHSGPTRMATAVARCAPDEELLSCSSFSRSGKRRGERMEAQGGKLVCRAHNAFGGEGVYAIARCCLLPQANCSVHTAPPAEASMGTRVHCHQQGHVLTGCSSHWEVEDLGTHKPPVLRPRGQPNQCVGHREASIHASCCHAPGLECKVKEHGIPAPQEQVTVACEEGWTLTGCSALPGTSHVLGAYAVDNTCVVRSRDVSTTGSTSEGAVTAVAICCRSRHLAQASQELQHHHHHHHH
T1 sequence (Q8NBP7 31-152, stated change not applied, chain 1 of 2): as the sequence (A8T644 31-152 limits assumed, chain 1 of 2) above
T1 sequence (Q8NBP7 other isoform, or with tags, fused parts or gaps mutant, chain 2 of 2): as the sequence (Q8NBP7 other isoform, or with tags, fused parts or gaps mutant, chain 2 of 2) above

B1: Compound 109 (peptide)
peptide: Ac-C[dR]LPWNLQRIGLPC-NH2
modifications: disulfide 1-14
SMILES: CC[C@H](C)[C@@H]1NC(=O)[C@H](CCCNC(=N)N)NC(=O)[C@H](CCC(N)=O)NC(=O)[C@H](CC(C)C)NC(=O)[C@H](CC(N)=O)NC(=O)[C@H](Cc2c[nH]c3ccccc23)NC(=O)[C@@H]2CCCN2C(=O)[C@H](CC(C)C)NC(=O)[C@@H](CCCNC(=N)N)NC(=O)[C@@H](NC(C)=O)CSSC[C@@H](C(N)=O)NC(=O)[C@@H]2CCCN2C(=O)[C@H](CC(C)C)NC(=O)CNC1=O
IC50 [1]: 1.67 µM | IC50 [2]: > 50 µM

SGCRLPWNLQRIGLPC (not fully specified (bridges); cysteine pairing not given here, Synthetic peptide) [K9gvpep4]
binding result [3]: binds

B2: Phage-displayed Pep2-8 (on p8) (peptide)
chain: TVFTSWEEYLDWV
notes: Peptide fused to the N-terminus of p8 on M13 phage; also called phage displaying Pep2-8; not shown: M13 major coat protein p8
binding result [4]: binds

Ac-WNLV[hArg]IGLLR-NH2 (Ac-WNLV(homoR)IGLLR-NH2) [Compound 192]
fold improvement of binding affinity against Compound 53 [5]: 14 fold

Ac-SGDLMPWNLVRIGLLR-NH2 [Compound 122]
IC50 [6]: ≥ 50 µM

Ac-DLMPWNLVRIALLR-NH2 [Compound 57]
IC50 [7]: 49.5 µM | IC50 [8]: > 50 µM

Ac-WNLVRIGLLR-NH2 [Compound 53]
fold reduction of binding affinity against Compound 35 [5]: 10 fold
